The labels stand for the following.
B1: Ab8 scFv (scFv)
scFv: ELALTQPPSVSVAPAMTAKITCGGDDIGSTTVQWYQQTSGQAPVLVVYDDSDRPSGIPERFSGANSGNTATLTISRVEAGDEADYYCQVWDGRSDHVVFGGGTKLTVLGGGSSRSSSSGGGGSGGGGQVQLVQSGAEVKKPGESLKISCKGSGYIFTNYWIGWVRQMPGKGLEWMGIIYPGDSDTRYSPSFQGQVTISADRSISTANLQWSSLKASDTALYYCARLKLRGFSGGYGSGRRYFDYWGQGTLVTVSS
B2: Ab10 scFv (scFv)
scFv: ELVMTQSPSSLSASVGDTVTITCRASQSIYTYLNWYHQTPGKAPKLLISAASSLQSGVPSRFSGSGSGTDFTLTISSLQPEDFATYYCQQYADVPVTFGGGTKLEIKGGSSRSSSSGGGGSGGGGEVQLVESGGGVVQPGRSLRLSCAASGFTFSGYGIHWVRQAPGKGLEWVALISYDGSNKYYADSVKGRFTISRDNSKNTLYLQMNSLRAEDTAVYYCAKDRDYFGSGFFDYWGQGTLVTVSS
B3: Ab9 scFv (scFv)
scFv: ELELTQPPSVSGTPGKRVSMSCSGSRSNIGGNVVNWYQQLPGKAPKLFIYNNDQRPSGVPDRVSGSKSGTSVSVAISGLQPEDEADYYCAAWDDILNGVVFGGGTQLTVLGGGSSRSSSSGGGGSGGGGQVQLVQSGAEVKKPGESLKISCKGSGYNFTNYWIGWVRQLPGKGLEWMGIIYPGDSDTRYSPSFQGQVTISADKSISTAYLQWSSLKASDTAMYYCARIRVIGFYDSSPPPLFDYWGQGTLVTVSS

The values below come from patent US20210171611A1 (SEOUL NATIONAL UNIVERSITY R AND DB FOUNDATION, published 2021).

The target of the experiment is T1, recombinant SFTS virus glycoprotein Gn fused to human Ig k-chain constant region (severe fever with thrombocytopenia …, UniProt P01834 1-107).
T1 construct: also called Gn-Ck
Kind of experiment: ELISA on recombinant glycoprotein (Gn-Ck coated, Example 5). (In an ELISA, binding on a coated surface is turned into a signal by an enzyme label.)
Take B1: the binding result is “binds”.

For B2, the binding result is listed as “binds”. Under B3 stands “binds”.
